Data reported in paper PMC4417118 (Genome Research, 2015).

Biological target: the molecule itself
Assay: native gel or EMSA

B1: His-CRMP1 (collapsin response mediator protein 1, wild type) (natural protein)
chain: not shown
B1 was tested. Which “stoichiometry N” value did it give?
The value was 4.

B2: His-CRMP1-D408V (natural protein)
chain: not shown
How did the “stoichiometry N” value turn out when B2 was run?
The value was 4.
